Measured values taken from US20200317779A1.

Legend:
[1] = target: recombinant human CD3ε/δ heterodimer (human) (UniProt P07766); assay: ELISA, coated CD3ε/δ
[2] = target: recombinant cynomolgus monkey CD3ε/δ heterodimer (cynomolgus monkey) (UniProt Q95LI5); assay: ELISA, coated CD3ε/δ
Chain of recombinant cynomolgus monkey CD3ε/δ heterodimer (cynomolgus monkey) (Q95LI5 22-117, stated change not applied, chain 1 of 2): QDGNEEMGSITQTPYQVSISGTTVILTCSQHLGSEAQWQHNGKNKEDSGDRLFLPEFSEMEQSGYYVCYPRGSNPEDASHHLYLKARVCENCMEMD
Chain of recombinant cynomolgus monkey CD3ε/δ heterodimer (cynomolgus monkey) (Q95LI8 22-105, stated change not applied, chain 2 of 2, further chain): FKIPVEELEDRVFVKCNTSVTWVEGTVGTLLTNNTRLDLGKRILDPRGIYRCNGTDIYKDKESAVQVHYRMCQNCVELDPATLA

Chain of recombinant human CD3ε/δ heterodimer (human) (P07766 23-126, stated change not applied, chain 1 of 2): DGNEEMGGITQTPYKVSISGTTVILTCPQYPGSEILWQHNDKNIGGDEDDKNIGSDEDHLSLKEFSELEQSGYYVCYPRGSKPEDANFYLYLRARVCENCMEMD
Chain of recombinant human CD3ε/δ heterodimer (human) (P04234 22-105, stated change not applied, chain 2 of 2, further chain): as the sequence (Q95LI8 22-105, stated change not applied, chain 2 of 2, further chain) above, with V5I, K15N, V20I, T32S, N33D, N34I, A64T, N74S, L83V counted along it

Absorbance (450 nm) [1] | Absorbance (450 nm) [2] | Binder
0.118 | 0.086 | F01 (antibody, human IgG1, lambda, L234A L235A, V domains shown) VH: EVQLVESGGGLVQPGGSLKLSCAASGFTFNTYAMNWVRQASGKGLEWVARIRSKYNNYATYYADSVKDRFTISRDDSKNTLYLQMNSLKTEDTAVYYCVRHGNFGNSYVSWFAYWGQGTLVTVSS VL: QAVVTQEPSLTVSPGGTVTLTCRSSTGAVTTSNYANWFQQKPGQAPRTLIYGTNKRAPWTPARFSGSLLGGKAALTLSGAQPEDEAEYYCALWYSNLWVFGGGTKLTVLG
0.097 | 0.066 | A10 (antibody, human IgG1, lambda, L234A L235A, V domains shown) VH: EVQLVESGGGLVQPGGSLKLSCAASGFTFNTYAMNWVRQASGKGLEWVGRIRSKYNNYATYYADSVKDRFTISRDDSKNTAYLQMNSLKTEDTAVYYCVRHGNFGNSYVSWFAYWGQGTLVTVSS VL: QAVVTQEPSLTVSPGGTVTLTCRSSTGAVTTSNYANWVQQKPGQAPRTLIYGTNKRAPWTPARFSGSLLGDKAALTLSGAQPEDEAEYYCALWYSNLWVFGGGTKLTVLG
0.098 | 0.088 | G03 (antibody, human IgG1, lambda, L234A L235A, V domains shown) VH: EVQLVESGGGLVQPGGSLKLSCAASGFTFNTYAMNWVRQASGKGLEWVARIRSKYNNYATYYADSVKDRFTISRDDSQSTAYLQMNSLKTEDTAVYYCVRHGNFGNSYVSWFAYWGQGTLVTVSS VL: QAVVTQEPSLTVSPGGTVTLTCRSSTGAVTTSNYANWFQQKPGQAPRTLIGGTNKRAPWTPARFSGSLLGGKAALTLSGAQPEDEAEYYCALWYSNLWVFGGGTKLTVLG
0.115 | 0.096 | F06 (antibody, human IgG1, lambda, L234A L235A, V domains shown) VH: EVQLVESGGGLVQPGGSLKLSCAASGFTFNTYAMNWVRQASGKGLEWVARIRSKYNNYATYYADSVKDRFTISRDDSKNTLYLQMNSLKTEDTAVYYCVRHGNFGNSYVSWFAYWGQGTLVTVSS VL: QAVVTQEPSLTVSPGGTVTLTCRSSTGAVTTSNYANWFQQKPGQAPRGLIYGTNKRAPWTPARFSGSLLGDKAALTLSGAQPEDEAEYYCALWYSNLWVFGGGTKLTVLG
0.192 | 0.151 | F13 (antibody, human IgG1, lambda, L234A L235A, V domains shown) VH: EVQLVESGGGLVQPGGSLKLSCAASGFTFNTYAMNWVRQASGKGLEWVARIRSKYNNYATYYADSVKDRFTISRDDSKNTLYLQMNSLKTEDTAVYYCVRHGNFGNSYVSWFAYWGQGTLVTVSS VL: QAVVTQEPSLTVSPGGTVTLTCRSSTGAVTTSNYANWVQQKPGQAPRGLIYGTNKRAPWTPARFSGSLLGGKAALTLSGAQPEDEAEYYCALWYSNLWVFGGGTKLTVLG
0.09 | 0.077 | F12 (antibody, human IgG1, lambda, L234A L235A, V domains shown) VH: EVQLVESGGGLVQPGGSLKLSCAASGFTFNTYAMNWVRQASGKGLEWVARIRSKYNNYATYYADSVKDRFTISRDDSKNTLYLQMNSLKTEDTAVYYCVRHGNFGNSYVSWFAYWGQGTLVTVSS VL: QAVVTQEPSLTVSPGGTVTLTCRSSTGAVTTSNYANWVQQKPGQAPRTLIGGTNKRAPWTPARFSGSLLGDKAALTLSGAQPEDEAEYYCALWYSNLWVFGGGTKLTVLG
0.133 | 0.163 | F07 (antibody, human IgG1, lambda, L234A L235A, V domains shown) VH: EVQLVESGGGLVQPGGSLKLSCAASGFTFNTYAMNWVRQASGKGLEWVARIRSKYNNYATYYADSVKDRFTISRDDSKNTLYLQMNSLKTEDTAVYYCVRHGNFGNSYVSWFAYWGQGTLVTVSS VL: QAVVTQEPSLTVSPGGTVTLTCRSSTGAVTTSNYANWFQQKPGQAPRGLIGGTNKRAPWTPARFSGSLLGGKAALTLSGAQPEDEAEYYCALWYSNLWVFGGGTKLTVLG
0.118 | 0.091 | F10 (antibody, human IgG1, lambda, L234A L235A, V domains shown) VH: EVQLVESGGGLVQPGGSLKLSCAASGFTFNTYAMNWVRQASGKGLEWVARIRSKYNNYATYYADSVKDRFTISRDDSKNTLYLQMNSLKTEDTAVYYCVRHGNFGNSYVSWFAYWGQGTLVTVSS VL: QAVVTQEPSLTVSPGGTVTLTCRSSTGAVTTSNYANWVQQKPGQAPRTLIYGTNKRAPWTPARFSGSLLGDKAALTLSGAQPEDEAEYYCALWYSNLWVFGGGTKLTVLG
0.129 | 0.063 | G04 (antibody, human IgG1, lambda, L234A L235A, V domains shown) VH: EVQLVESGGGLVQPGGSLKLSCAASGFTFNTYAMNWVRQASGKGLEWVARIRSKYNNYATYYADSVKDRFTISRDDSQSTAYLQMNSLKTEDTAVYYCVRHGNFGNSYVSWFAYWGQGTLVTVSS VL: QAVVTQEPSLTVSPGGTVTLTCRSSTGAVTTSNYANWFQQKPGQAPRTLIGGTNKRAPWTPARFSGSLLGDKAALTLSGAQPEDEAEYYCALWYSNLWVFGGGTKLTVLG
0.134 | 0.18 | F08 (antibody, human IgG1, lambda, L234A L235A, V domains shown) VH: EVQLVESGGGLVQPGGSLKLSCAASGFTFNTYAMNWVRQASGKGLEWVARIRSKYNNYATYYADSVKDRFTISRDDSKNTLYLQMNSLKTEDTAVYYCVRHGNFGNSYVSWFAYWGQGTLVTVSS VL: QAVVTQEPSLTVSPGGTVTLTCRSSTGAVTTSNYANWFQQKPGQAPRGLIGGTNKRAPWTPARFSGSLLGDKAALTLSGAQPEDEAEYYCALWYSNLWVFGGGTKLTVLG
0.114 | 0.1 | F14 (antibody, human IgG1, lambda, L234A L235A, V domains shown) VH: EVQLVESGGGLVQPGGSLKLSCAASGFTFNTYAMNWVRQASGKGLEWVARIRSKYNNYATYYADSVKDRFTISRDDSKNTLYLQMNSLKTEDTAVYYCVRHGNFGNSYVSWFAYWGQGTLVTVSS VL: QAVVTQEPSLTVSPGGTVTLTCRSSTGAVTTSNYANWVQQKPGQAPRGLIYGTNKRAPWTPARFSGSLLGDKAALTLSGAQPEDEAEYYCALWYSNLWVFGGGTKLTVLG
0.084 | 0.069 | F04 (antibody, human IgG1, lambda, L234A L235A, V domains shown) VH: EVQLVESGGGLVQPGGSLKLSCAASGFTFNTYAMNWVRQASGKGLEWVARIRSKYNNYATYYADSVKDRFTISRDDSKNTLYLQMNSLKTEDTAVYYCVRHGNFGNSYVSWFAYWGQGTLVTVSS VL: QAVVTQEPSLTVSPGGTVTLTCRSSTGAVTTSNYANWFQQKPGQAPRTLIGGTNKRAPWTPARFSGSLLGDKAALTLSGAQPEDEAEYYCALWYSNLWVFGGGTKLTVLG
0.128 | 0.101 | F03 (antibody, human IgG1, lambda, L234A L235A, V domains shown) VH: EVQLVESGGGLVQPGGSLKLSCAASGFTFNTYAMNWVRQASGKGLEWVARIRSKYNNYATYYADSVKDRFTISRDDSKNTLYLQMNSLKTEDTAVYYCVRHGNFGNSYVSWFAYWGQGTLVTVSS VL: QAVVTQEPSLTVSPGGTVTLTCRSSTGAVTTSNYANWFQQKPGQAPRTLIGGTNKRAPWTPARFSGSLLGGKAALTLSGAQPEDEAEYYCALWYSNLWVFGGGTKLTVLG
0.105 | 0.075 | F05 (antibody, human IgG1, lambda, L234A L235A, V domains shown) VH: EVQLVESGGGLVQPGGSLKLSCAASGFTFNTYAMNWVRQASGKGLEWVARIRSKYNNYATYYADSVKDRFTISRDDSKNTLYLQMNSLKTEDTAVYYCVRHGNFGNSYVSWFAYWGQGTLVTVSS VL: QAVVTQEPSLTVSPGGTVTLTCRSSTGAVTTSNYANWFQQKPGQAPRGLIYGTNKRAPWTPARFSGSLLGGKAALTLSGAQPEDEAEYYCALWYSNLWVFGGGTKLTVLG
0.113 | 0.096 | G01 (antibody, human IgG1, lambda, L234A L235A, V domains shown) VH: EVQLVESGGGLVQPGGSLKLSCAASGFTFNTYAMNWVRQASGKGLEWVARIRSKYNNYATYYADSVKDRFTISRDDSQSTAYLQMNSLKTEDTAVYYCVRHGNFGNSYVSWFAYWGQGTLVTVSS VL: QAVVTQEPSLTVSPGGTVTLTCRSSTGAVTTSNYANWFQQKPGQAPRTLIYGTNKRAPWTPARFSGSLLGGKAALTLSGAQPEDEAEYYCALWYSNLWVFGGGTKLTVLG
0.099 | 0.084 | F09 (antibody, human IgG1, lambda, L234A L235A, V domains shown) VH: EVQLVESGGGLVQPGGSLKLSCAASGFTFNTYAMNWVRQASGKGLEWVARIRSKYNNYATYYADSVKDRFTISRDDSKNTLYLQMNSLKTEDTAVYYCVRHGNFGNSYVSWFAYWGQGTLVTVSS VL: QAVVTQEPSLTVSPGGTVTLTCRSSTGAVTTSNYANWVQQKPGQAPRTLIYGTNKRAPWTPARFSGSLLGGKAALTLSGAQPEDEAEYYCALWYSNLWVFGGGTKLTVLG
0.092 | 0.05 | A09 (antibody, human IgG1, lambda, L234A L235A, V domains shown) VH: EVQLVESGGGLVQPGGSLKLSCAASGFTFNTYAMNWVRQASGKGLEWVGRIRSKYNNYATYYADSVKDRFTISRDDSKNTAYLQMNSLKTEDTAVYYCVRHGNFGNSYVSWFAYWGQGTLVTVSS VL: QAVVTQEPSLTVSPGGTVTLTCRSSTGAVTTSNYANWVQQKPGQAPRTLIYGTNKRAPWTPARFSGSLLGGKAALTLSGAQPEDEAEYYCALWYSNLWVFGGGTKLTVLG
0.146 | 0.069 | G02 (antibody, human IgG1, lambda, L234A L235A, V domains shown) VH: EVQLVESGGGLVQPGGSLKLSCAASGFTFNTYAMNWVRQASGKGLEWVARIRSKYNNYATYYADSVKDRFTISRDDSQSTAYLQMNSLKTEDTAVYYCVRHGNFGNSYVSWFAYWGQGTLVTVSS VL: QAVVTQEPSLTVSPGGTVTLTCRSSTGAVTTSNYANWFQQKPGQAPRTLIYGTNKRAPWTPARFSGSLLGDKAALTLSGAQPEDEAEYYCALWYSNLWVFGGGTKLTVLG
0.138 | 0.104 | F11 (antibody, human IgG1, lambda, L234A L235A, V domains shown) VH: EVQLVESGGGLVQPGGSLKLSCAASGFTFNTYAMNWVRQASGKGLEWVARIRSKYNNYATYYADSVKDRFTISRDDSKNTLYLQMNSLKTEDTAVYYCVRHGNFGNSYVSWFAYWGQGTLVTVSS VL: QAVVTQEPSLTVSPGGTVTLTCRSSTGAVTTSNYANWVQQKPGQAPRTLIGGTNKRAPWTPARFSGSLLGGKAALTLSGAQPEDEAEYYCALWYSNLWVFGGGTKLTVLG
0.093 | 0.076 | F02 (antibody, human IgG1, lambda, L234A L235A, V domains shown) VH: EVQLVESGGGLVQPGGSLKLSCAASGFTFNTYAMNWVRQASGKGLEWVARIRSKYNNYATYYADSVKDRFTISRDDSKNTLYLQMNSLKTEDTAVYYCVRHGNFGNSYVSWFAYWGQGTLVTVSS VL: QAVVTQEPSLTVSPGGTVTLTCRSSTGAVTTSNYANWFQQKPGQAPRTLIYGTNKRAPWTPARFSGSLLGDKAALTLSGAQPEDEAEYYCALWYSNLWVFGGGTKLTVLG
